{"source": "the DeepSol protein solubility set"}
{"assay": "soluble on expression in E. coli; label from the status in PepcDB or PDB records"}
{"sequence": "MGSDKIHHHHHHMEKIGELINHFRENKGMSQAELSEGILSKAQLSKFERDLTKISVDKFLALLERLHVTFTEFGNALAIQERLYEQAILEDITKAVINNNKDQAQLVKERAEQHLKKHHGKYNQLTLIMVKAMICDMEKGTLPKADTKVLADYLFSVDGWTHFELLLFGNTMSALSLVTVNQLARELAAQINEAWAIHQNFQLTINLLYNVVILNLSAKDLTTARLFLRVMKHSHVEDSMMAERYLIALADAFCDYCGEPTVEHENNVKRMIEIQKEIGSTNFFVAFNNQAKMFISETKISSNDSAGNV", "soluble on expression in E. coli": "not soluble"}
{"sequence": "MNAKAVKEVLKAHVGRAYAPYSGFPVVALVEAEGEVFLGVNVENASFPLSQCAERNAVAAMVLAGKRRLERVHVYSPKGPIPPCGGCRQVLMEFGGPEVEVVLHGPEEEVRTTLGALLPLAFRL", "soluble on expression in E. coli": "soluble"}
{"sequence": "MSLIDKSSEIARFSGKGILITPKTLEKPLLKWEKLEIILYKDKIVFEFVDKTIEVGVEDIEDVGAELPKKVIDIAKSTLEDITYHSSIIIKSKEFGNVMVGFAPETSIYGKAPIDNFLRKLFYILLNKKEVKILYNAGENSENTKWENGFLTFIKKRIKDGLVTKIEYRLVVEILDNEDSKIYDIFSNIKDVEIEEKDVDGEIEPVLKILQVKDGKDIISYLYTKDKKVRLFILRYMVILLDYKYIGILRYLQETVEEGHHHHHH", "soluble on expression in E. coli": "soluble"}
{"sequence": "MTLLNSRRAAGAFATTLVASTLGLSGCTSVTSSATSSPEPPTKVAAAMQTTTGETSISNETSFNASRETSLTALGFLDYLDEEQRAALLGEGLDISTLTWANQVTALRVLESLFNEHAYELVSAVIQHVAQEPGDNPHHFLKFSPEPSTENSWELTLDGPTVGLKVTFDPDGQITFKDAHLGLSPAEVVSVTEALDTSYSESQIKKAAEQLVGSLNPTQQAALQGSGLRGAQLTEEQKTLFLKMTSNWIDLANGDSGSEQQEEIADTFSDTYIIWNEQKDGSAFFQMKGPELDFSYKESVPENAELSARGVPNIQTSFQSPLEHHHHHH", "soluble on expression in E. coli": "not soluble"}
{"sequence": "MKRIGVLTSGGDSPGMNAAIRSVVRKAIYHGVEVYGVYHGYAGLIAGNIKKLEVGDVGDIIHRGGTILYTARCPEFKTEEGQKKGIEQLKKHGIEGLVVIGGDGSYQGAKKLTEHGFPCVGVPGTIDNDIPGTDFTIGFDTALNTVIDAIDKIRDTATSHERTWVIEVMGRHAGDIALYSGLAGGAETILIPEADYDMNDVIARLKRGHERGKKHSIIIVAEGVGSGVDFGRQIQEATGFETRVTVLGHVQRGGSPTAFDRVLASRLGARAVELLLEGKGGRCVGIQNNQLVDHDIAEALANKHTIDQRMYALSKELSI", "soluble on expression in E. coli": "soluble"}
{"sequence": "MGLVIYDTLARRKVPFEPAVPGHVGIYVCGPTVYADPHLGHARGPVVYDVLRRYLLHKGYKVRFVSNITDVGHLTDDADEGEDKIVRRAKLERLEPMEVAEKYTWSYFDAMQALNVLRPSIAPRASGHIPEMLELTERLLARGVAYERKGSVYFRVRSFPEYGKLSGKRLEELRAGARVEVREEKEDPLDFALWKAAEPGHIMRWKSPWGEGYPGWHIECTAMSLKYLGEGFDLHAGGIDLQFPHHECEIAQAEAAGFRFARHWMHHNHVLLEGEKMAKSTGNLVLLHDLLEAHEPMALRFYLLQTHYRSPMDFTWEGLESAKRGYGRLLHAYREVRGRKKTAPPGTTPELERALDALEKAFMEAIEDDLSTPEALAALFAFLPELHKLLPEAKAESLARAEAVFHTLGEGILGLFPERVLEERVSGPLLEGLIALLLELREEARRAKDYEKSDLIRERLRALGVIVEDTKEGPRWRLER", "soluble on expression in E. coli": "soluble"}
{"sequence": "MSGSSHYPVANWNLDGIVSGLRGARQEWRGPRGRLREESESGVREFPSQESLRDIMRQLFGALFPMRLGPIDLREEVEDFYVGHTIGAALDALLHQVCLELQHLGRDDPQPYGQVLERAVDIVRRFGAELPAVRKALDLDVTAAYQGDPAARSVDEVLLCYPGVTAMIHHRLANVLYRLGAPMLARIVAEIAHSDTGIDIHPGATIGRSFFIDHGTGVVIGETAIIGERVRLYQMVTLGAKRFPPGENGELKKGLPRHPIIEDDVVIYAGATILGRITIGQGSTIGGNVWLTHSVPPNSTVTQAGAINDMPDCGLGGLEHHHHHH", "soluble on expression in E. coli": "not soluble"}
{"sequence": "MTELARLKFYATQPHPCSYLPEEQATTLFLDPSQPMDTQLYASLSEVGFRRSGDHLYRPHCQHCTACIAARIPVADFSPNRQQRRILKRNAELQVIRKRPSFNEEYYDLYRRYIEQRHADGDMYPPSRDQFATFLVRDLPFCCFFEFRLHGRLLAIAVTDVLPNGLSAVYTFYDPDEEQRSLGRYAILWQIAETERLGLQAVYLGYWIKNCRKMNYKTQYRPIELFVNQRWVALTLEHHHHHH", "soluble on expression in E. coli": "not soluble"}
{"sequence": "MTARDFLEFRERLAPASGFQSAQLREIEILLGLEDTQRISIGNGCSYRDALKLPGGAPSSSAQRVEARAADGPSFKHCLYDWLSRVPIDGSNAPADITRFLEAYLASLRAENDRRLKLASSGLAAAEIEQLRARYAAEDAGAQAFLLAEDDPQASDAERETRRAGRAAMLFIESYRELPQLAWPHALLESVLELEQAMLIWRQRHARMVERFIGRRIGTGGSSGVDYLDQTARYRIFTELWTVRSLLLRKAAVPQIRSSAGYGFVMEGFALEHHHHHH", "soluble on expression in E. coli": "not soluble"}
{"sequence": "MGSDKIHHHHHHMRTLFSQQQWIDMKVLVTGATSGLGRNAVEFLCQKGISVRATGRNEAMGKLLEKMGAEFVPADLTELVSSQAKVMLAGIDTLWHCSSFTSPWGTQQAFDLANVRATRRLGEWAVAWGVRNFIHISSPSLYFDYHHHRDIKEDFRPHRFANEFARSKAASEEVINMLSQANPQTRFTILRPQSLFGPHDKVFIPRLAHMMHHYGSILLPHGGSALVDMTYYENAVHAMWLASQEACDKLPSGRVYNITNGEHRTLRSIVQKLIDELNIDCRIRSVPYPMLDMIARSMERLGRKSAKEPPLTHYGVSKLNFDFTLDITRAQEELGYQPVITLDEGIEKTAAWLRDHGKLPR", "soluble on expression in E. coli": "not soluble"}
{"sequence": "MAGDPMKKQFLEKAVFTVAATAATVVLGNKMADADTYTLQEGDSFFSVAQRYHMDAYELASMNGKDITSLILPGQTLTVNGSAAPDNQAAAPTDTTQATTETNDANANTYPVGQCTWGVKAVATWAGDWWGNGGDWASSASAQGYTVGNTPAVGSIMCWTDGGYGHVAYVTAVGEDGKVQVLESNYKDQQWVDNYRGWFDPNNSGTPGSVSYIYPNLEHHHHHH", "soluble on expression in E. coli": "soluble"}
{"sequence": "MTTRRLALFDLDHTLLPLDSDYQWADFLARTGRAGDPAEARRRNDDLMERYNRGELTAEQAAEFMLGLLAAHSPVELAAWHEEFMRDVIRPSLTAQAVDVVRGHLAAGDLCALVTATNSFVTAPIARAFGVQHLIATDPEYRDGRYTGRIEGTPSFREGKVVRVNQWLAGMGLALGDFAESYFYSDSVNDVPLLEAVTRPIAANPSPGLREIAQARGWQVIDLFDHLEDAKS", "soluble on expression in E. coli": "not soluble"}
{"sequence": "MESSIKVGISSCVLGERVRFDSGHKVSNFVTKELSNYFDFVSVCPEVGVGMPVPRPTIRLISNEERIALVETKNPDNDHTDNMLTYSANKVDELQNEQLCGYIVCAKSPTCGMERVKVYSKNNAAKEGVGLYTKTLMEKMPWLPVEEDGRLNDPVLKENFITRIYCLNDFYESMAGEPTRGKIIDFHSRYKLTLMAHHPESYRSLGRLVADVASYEIDEFYREYRLGLMTALSNRASRKNNTNVLMHLQGYFKRSLNKDEKEELATVIQDYRTGTLPLLAPLTLIKHYLNAYPDEYLQRQKFLEPHPQEMRLRYGL", "soluble on expression in E. coli": "not soluble"}
{"sequence": "MLNVGATAPDFTLRDQNQQLVTLRGYRGAKNVLLVFFPLAFTGICQGELDQLRDHLPEFENDDSAALAISVGPPPTHKIWATQSGFTFPLLSDFWPHGAVSQAYGVFNEQAGIANRGTFVVDRSGIIRFAEMKQPGEVRDQRLWTDALAALTA", "soluble on expression in E. coli": "soluble"}
{"sequence": "MFNSKPLLTITLLAVSSVASAAEQALDAQQVAQLIEKADSYRLQDDSSKVVSLVRLYQDQELDKTRLYHVYTRPNRESLVVFKSAVEAGQKMLMMGDNYWLQMPKSRRPIRITPMQKLLGEASIGDISTLTWSQDYQGEWKATETLTINGQSIAAYRLALTAKTKGASYQKIDLWLSEQDAFPIKADLYLRSGKLAKQAQYGRATNLGKDYVSEMTLLDSIQPSKKTVIEYQEIVPWQLDNKFYNPSYLPKANTSEL", "soluble on expression in E. coli": "not soluble"}
{"sequence": "MKFYNREKELNYLKTYCQLDPNSILFVYGPKSSGKSTVMRRVIKELEDSNIVFFYYNLRKYATYSKEEFLRVFFEKSEKKYLLNKLELNLGVFKFGVEENFDFNNLKLNDVFAKINESINAVVEDGKKPVLIIDELQKLKNIYFNGGKSLLNELFNLFVSLTKMEHLCHVICLTSDTLFIEEIYQSSTLENTSKYYLIDWLRKGTIRNILKEEGFSEEEINYCLDYLSLPYEIVDLIENKKLGLSVEETIRQWINIEKDKIKYLIDTTDLDEEELYKVLSKFKDKIKISYEKEVKKEEMKYFKFLIKNEILFYDVINGIIKPTSVKKWYAIREILK", "soluble on expression in E. coli": "not soluble"}
{"sequence": "METEIPVNEKETSFRRRVYTTIETLIDIENTDQLQEHLPHLHCLGWDEVVEERYVNKQCGFPSCQKAPPKITRNQMFEIDRKEGKIFEFRKQRAKFCSEMCYQKSSFVRKQLDEHPLWITGLTEARTQKVYEVPDESFVSPIAEKSEPVDSQFKKEPSIWLVTDSIIAKVQDMKLSEEAEEPKSLDPEDQDIEPFKLTDDDKDFIKSIKEFRNSNFGPPSTSKLLKTAPKPVLSAKDRKKEDEVLAKLRAKYGNKNALQKKPPILIEAQEIHSKLKTMEKAKEAWLVDLIKSWFTPETRKLVREGARPTGGAAEQILMDFLSGKKVDAEKLVNLPNLDKYNVKEKRLNIFLHSIRNHWMDLEARLHLTPTRRDILSRVASTFQLDSENITGWTKREINSIVIALFIVICLVDVELGDDYFKKDNASPELTAISNELCGLDSFQITGLHAAIKSQC", "soluble on expression in E. coli": "not soluble"}
{"sequence": "MGHHHHHHSHGATLIRDRLKTEPFEENSFLEQFMIEKLPEACSIGDGKPFVMNLQDLYMAVTTQEVQVGQKHQGAGDPHTSNSASLQGIDSQCVNQPEQLVSSAPTLSAPEKESTALCRDLSCQRSRGRSQGVSSVNLLWPQLLRMDLENSFQASP", "soluble on expression in E. coli": "not soluble"}
{"sequence": "SESSESKASSGLPIDLRGKRAFIAGIADDNGYGWAVAKSLAAAGAEILVGTWVPALNIFETSLRRGKFDQSRVLPDGSLMEIKKVYPLDAVFDNPEDVPEDVKANKRYAGSSNWTVQEAAECVRQDFGSIDILVHSLANGPEVSKPLLETSRKGYLAAISASSYSFVSLLSHFLPIMNPGGASISLTYIASERIIPGYGGGMSSAKAALESDTRVLAFEAGRKQNIRVNTISAGPLGSRAAKAIGFIDTMIEYSYNNAPIQKTLTADEVGNAAAFLVSPLASAITGATIYVDNGLNSMGVALDSPVFKDLDK", "soluble on expression in E. coli": "soluble"}
{"sequence": "MAVGAPFLYRYSLYNCAYVILNGKVLGIVPKSYIPNYSEFYEKRWFTEGFNIKGLNVDLDFQKEVPFGTDLIFSFKNLKVGFEICEDLWVTIPPSSNLALMGANLICNLSASNELVSKSSYRKSLVQNQSARTMCSYIYSSAGVHESTTDLLFSGHMIIAENGTIIKENNRFKRENDLLTGIVDLFKLDAERIKNISFRNSTFNENNEPRFIPFNLENTEIKNFDREIDKHPFLPKSQYAMEARCEEILNIQAAALAKRLEHTNLKKAVIGISGGLDSTLALLVVVKTFDMLNIPRENIITITMPGFGTTDRTYNNAVTLCKELHCDFREINIVNAALQHFEDIGHDKDIHDVTYENVQARERTQILMDLANKEGGLLIGTGDLSELALGWCTYNGDHMSMYSVNCSIPKTLVRFLVNYFANHEISNDAKEALLDILDTPVSPELLPKDKEGKIAQKTEDIVGPYELHDFFLYHFIKHGSSPERILFLAKEAFKNDYDEETLKKWLDKFIRRFFTQQFKRSALPDGPKVGSISLSPRGDWRMPSDAVYNDFLILEHHHHHH", "soluble on expression in E. coli": "not soluble"}
